The source of these data is patent publication US6960559 (UNIVERSITY OF ZURICH, dated 2005).

The star is where a group is joined. Cbz = O=C(OCc1ccccc1)*

The labels stand for the following.
B1: carbobenzoxy-Phe-Ala-Phe-Tyr-amide (peptide)
peptide: Cbz-FAFY-NH2
SMILES: C[C@H](NC(=O)[C@H](Cc1ccccc1)NC(=O)OCc1ccccc1)C(=O)N[C@@H](Cc1ccccc1)C(=O)N[C@@H](Cc1ccc(O)cc1)C(N)=O
B2: FAFY-NH2 (peptide)
peptide: H-FAFY-NH2
B3: cbz-AF-NH2 (peptide)
peptide: Cbz-Ala-Phe-NH2
SMILES: C[C@H](NC(=O)OCc1ccccc1)C(=O)N[C@@H](Cc1ccccc1)C(N)=O
B4: AFY-NH2 (peptide)
peptide: H-Ala-Phe-Tyr-NH2
B5: carbobenzoxy-tyrosine-tyrosine (peptide)
peptide: Cbz-Tyr-Tyr-OH
SMILES: O=C(N[C@@H](Cc1ccc(O)cc1)C(=O)N[C@@H](Cc1ccc(O)cc1)C(=O)O)OCc1ccccc1
B6: cbz-GFF (peptide)
peptide: Cbz-Gly-Phe-Phe-OH
SMILES: O=C(CNC(=O)OCc1ccccc1)N[C@@H](Cc1ccccc1)C(=O)N[C@@H](Cc1ccccc1)C(=O)O
B7: carbobenzoxy-Gly-Phe-amide (peptide)
peptide: Cbz-Gly-Phe-NH2
SMILES: NC(=O)[C@H](Cc1ccccc1)NC(=O)CNC(=O)OCc1ccccc1
B8: Carbobenzoxy-Gly-Phe-Phe-amide (peptide)
peptide: Cbz-Gly-Phe-Phe-NH2
SMILES: NC(=O)[C@H](Cc1ccccc1)NC(=O)[C@H](Cc1ccccc1)NC(=O)CNC(=O)OCc1ccccc1
B9: cbz-AFY-NH2 (peptide)
peptide: Cbz-Ala-Phe-Tyr-NH2
SMILES: C[C@H](NC(=O)OCc1ccccc1)C(=O)N[C@@H](Cc1ccccc1)C(=O)N[C@@H](Cc1ccc(O)cc1)C(N)=O
B10: cbz-FA-NH2 (peptide)
peptide: Cbz-Phe-Ala-NH2
SMILES: C[C@H](NC(=O)[C@H](Cc1ccccc1)NC(=O)OCc1ccccc1)C(N)=O
B11: cbz-GFF-OCH3 (peptide)
peptide: Cbz-Gly-Phe-Phe-OMe
SMILES: COC(=O)[C@H](Cc1ccccc1)NC(=O)[C@H](Cc1ccccc1)NC(=O)CNC(=O)OCc1ccccc1
B12: cbz-GLF-NH2 (peptide)
peptide: Cbz-Gly-Leu-Phe-NH2
SMILES: CC(C)C[C@H](NC(=O)CNC(=O)OCc1ccccc1)C(=O)N[C@@H](Cc1ccccc1)C(N)=O

The target in one assay is T1, C6 plasma membrane associated metalloendoprotease (rat C6 glioblastoma cells) (rat). Description: cell-based or functional assay.
Consider B1, for which the “IC50 on CNS myelin [µM], half maximal inhibition of C6 cell spreading” value worked out at 3 µM. The same measure, in the same setting: for B2 the value was 300 µM.

Take B3: the “IC50 on CNS myelin [µM], half maximal inhibition of C6 cell spreading” value stood at 600 µM. Still for that read-out and setting: the value for B4 was 1000 µM; that for B5 was 300 µM. As for B6, the “IC50 on CNS myelin [µM], half maximal inhibition of C6 cell spreading” value is 300 µM. The same measure, in the same setting: the value for B7 was 600 µM. Same read-out and setting: the value for B8 was 8 µM; that for B9 was 20 µM. The same measure, in the same setting: for B10 the value was 600 µM.

The target in the next assay is T1, C6 plasma membrane associated …. Description: cell-based or functional assay. The source holds these as a separate data set.
In the case of B11, the “IC50 of C6 cell spreading on CNS myelin” value came to 5 µM. The same measure, in the same setting: for B12 the value was 5 µM.
